Source: US12692310B2, “ASIC1 channel antagonist antibody” (ShanghaiTech University, priority 2019, dated 2026)
Read-outs that look alike come from different tables or passages of the source. No end group written: not given here.

T1: hASIC1a (Homo sapiens, UniProt P78348)
T1 construct: expressed in transfected cells
T1 sequence (P78348 1-528): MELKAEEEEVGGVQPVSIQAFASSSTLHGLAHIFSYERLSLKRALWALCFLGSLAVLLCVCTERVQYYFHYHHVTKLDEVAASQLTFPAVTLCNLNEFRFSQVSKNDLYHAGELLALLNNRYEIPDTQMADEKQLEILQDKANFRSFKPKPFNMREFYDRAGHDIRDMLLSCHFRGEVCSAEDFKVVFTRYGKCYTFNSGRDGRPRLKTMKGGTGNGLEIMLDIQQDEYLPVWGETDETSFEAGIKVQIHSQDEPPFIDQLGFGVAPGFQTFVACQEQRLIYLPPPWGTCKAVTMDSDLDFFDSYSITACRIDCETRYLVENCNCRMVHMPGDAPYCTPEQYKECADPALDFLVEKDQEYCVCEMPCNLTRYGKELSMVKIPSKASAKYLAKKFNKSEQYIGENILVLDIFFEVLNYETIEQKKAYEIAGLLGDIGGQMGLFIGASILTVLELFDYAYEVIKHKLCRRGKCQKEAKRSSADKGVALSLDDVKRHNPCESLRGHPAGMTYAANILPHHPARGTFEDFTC

T2: hASIC1a-eYFP (human, UniProt P78348 1-528)
T2 construct: whole, on cells; On CHO-K1 cells, stably (6H7) or transiently transfected; also called full-length hASIC1a (1-528 amino acids) fused with eYFP; CHO-K1/hASIC1a cells; not shown: C-terminal eYFP fusion
T2 sequence (looked up): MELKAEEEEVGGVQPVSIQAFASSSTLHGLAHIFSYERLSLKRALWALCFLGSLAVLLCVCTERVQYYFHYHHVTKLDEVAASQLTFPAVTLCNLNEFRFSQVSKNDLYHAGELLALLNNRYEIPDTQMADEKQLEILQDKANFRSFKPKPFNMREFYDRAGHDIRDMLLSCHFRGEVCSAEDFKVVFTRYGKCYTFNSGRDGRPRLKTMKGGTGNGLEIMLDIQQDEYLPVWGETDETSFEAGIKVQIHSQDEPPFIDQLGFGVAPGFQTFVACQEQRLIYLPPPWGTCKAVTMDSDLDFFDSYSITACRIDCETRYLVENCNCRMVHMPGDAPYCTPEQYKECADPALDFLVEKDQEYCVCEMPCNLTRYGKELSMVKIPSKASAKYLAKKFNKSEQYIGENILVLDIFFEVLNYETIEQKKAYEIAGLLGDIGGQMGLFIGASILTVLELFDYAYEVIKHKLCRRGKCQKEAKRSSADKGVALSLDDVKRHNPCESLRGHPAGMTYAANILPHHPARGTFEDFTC


Key:
hASIC1a = molecular target: T1, hASIC1a; test: Whole-cell patch clamp, acid-induced hASIC1a currents in stable CHO-K1 cells; type: cell-based
Experimental: Electrophysiological Experiments. The inward cellular ASIC1a current was recorded from a single cell using standard whole-cell recording techniques by a patch-clamp amplifier (Axon 200B; Axon Instruments). Membrane currents were sampled and analyzed using a Digidata 1320A interface and a personal computer with Clampex and Clampfit software (Version 9.0.1; Axon Instruments). For a typical experiment, the extracellular fluid (ECF) used contained 150 mM NaCl, 5 mM KCl, 10 mM HEPES, 10 mM D-glucose, 2 mM CaCl2, and 1.0 mM MgCl2, with the osmotic pressure in the range of 320-335 mOsm, and pH 7.4 adjusted with 5 M NaOH. Patch electrodes (4-6 MΩ) contained 30 mM NaCl, 120 mM KCl, 0.5 mM CaCl2, 1 mM MgCl2, 10 mM HEPES, 2 mM MgATP, and 5 mM EGTA (pH 7.2 adjusted with 5 M KOH) at 300 mOsm. The ASIC1a activating ECF is identical to the normal ECF, except that MES was used to replace HEPES to maintain the ECF at pH 6.0. A coverslip with discretely distributed individual CHO-ASIC1a stable cells (6H7) on the surface was placed into a recording chamber under a constant perfusion (~2-3 mL/min) generated by an ALA 8 channel perfusion system (ALA Scientific Instruments Inc.) mounted on an inverted microscope. After achieving the break-in (whole-cell) configuration, the cell was voltage clamped at a holding potential of −70 mV. The normal ECF (pH 7.4) was first perfused onto the patched cell, and then, the activating ECF of pH 6.0 was rapidly applied to elicit a maximum inward ASIC1a current as control current. When testing the inhibition effect of the antibody, ECFs of pH 7.4 containing different concentrations of ASC06-IgG1 were perfused from low to high concentration into the recording chamber for 10-15 min. To measure the inhibition of the current, the activating ECFs of pH 6.0 containing the corresponding concentrations of the testing antibodies were applied to the same patched 6H7 cell to generate the inward currents that can be normalized to the control current of the same cell. […] Data acquired from four to five cells were used for statistical calculation of inhibition effects.
The function of ASC06-IgG1 was characterized using electrophysiology approach. The effect of ASC06-IgG1 antibody on the acid-induced, hASIC1a-mediated electrical current in cells was analyzed. PcTx1 was used as a positive control. […] The amplitudes of the hASIC1a-mediated inward currents of the stable cells were recorded and quantitated in the absence and presence of ASC06-IgG1, with venom peptide PcTx1 (100 nM) used as positive control. […] Unlike the sustained inhibition with the antibody after washing, the inhibition with PcTx1 could be readily washed out within 5 minutes (FIG. 5C).

[1] = test system: MCAO-induced ischemic stroke model mice; test: Middle cerebral artery occlusion (MCAO)-induced ischemic stroke model; type: in vivo, mouse; conditions: 4 μL i.c.v. 3 h after ischemia; 100 nM PcTx1 or 3.0 μg/μL ASC06-IgG1; 24 h after injection
Experimental: The Middle Cerebral Artery Occlusion (MCAO) Model. Animal care and the experimental protocols were approved by the Animal Ethics Committee of Shanghai Jiao Tong University School of Medicine, Shanghai, China. A transient ischemic stroke in the left brain hemisphere was established in male mice (C57 BL/6, 20-25 g) using middle cerebral artery occlusion (MCAO) for 1 h before reperfusion. Three hours after ischemia, a total of 4 μL of vehicle solution (PBS) in the absence or presence of neuroprotective agents) 100 nM PcTx1 or 3.0 μg/μL endotoxin-free ASC06-IgG1 ([…])) was administered by an intracerebroventricular (i.c.v.) injection on the contralateral side of the brain hemisphere. An irrelevant endotoxin-free antibody (3.0 μg/μL, […]) was used as isotype control. […] Mice were sacrificed 24 h after the i.c.v. injection. […] The infarct area was calculated by subtracting the normal area stained with TTC in the ischemic hemisphere from that of the nonischemic hemisphere. The infarct volume was calculated by summing infarction areas of all sections and multiplying by slice thickness.
To determine if the protective effect of antibody ASC06-IgG1 in vitro could be extended to pathologies in vivo, the middle cerebral artery occlusion (MCAO) model was used to study the antibody's neuroprotective effect. […] The infarct volume of the cortex and striatum were calculated 24 hours after the injection. […]

[2] = molecular target: truncated hASIC1a (amino acids 13-464) (human) (UniProt P78348); test: Octet, scFv format at 500 nM, ΔhASIC1a nanodiscs
[3] = molecular target: truncated hASIC1a (amino acids 13-464) (human) (UniProt P78348); test: Octet, scFv format, ΔhASIC1a nanodiscs
hASIC1a-eYFP = molecular target: T2, hASIC1a-eYFP; test: immunocytochemistry, confocal microscopy, CHO-K1 cells expressing hASIC1a-eYFP
[4] = molecular target: truncated hASIC1a (amino acids 13-464) (human) (UniProt P78348)

Row | Molecule | inhibition of the acid-induced current, in words (hASIC1a; 100 nM, positive control) | time for inhibition to be washed out (hASIC1a; washout experiment) | infarct volume (compared with the contralateral brain region) [1] | Response [2] | Kd [3] | binding result (hASIC1a-eYFP) | Kd [4]
1 | Psalmotoxin-1 [PcTx1, reference compound] | nearly complete inhibition | ≤ 5 min | about 17% |  |  |  | 
2 | ASC04 (scFv, V domains shown, also called ASC04 scFv; ASC04 (scFv format)) VH: QVQLVQSGAEVKKPGSSVKVSCKASGGTFSTYAINWVRQAPGQGLEWMGWMNPNSGNTGYAQKFQGRVTMTRNTSISTAYMELSSLRSEDTAVYYCARYSYGMDVWGQGTTVTVSS VL: QAVLTQPSSLSASPGASVSLTCTLRSGINVGAYRIYWYQQKPGSPPQFLLRYKSDSDKQQGSGVPSRFSGSRDASANAGILLISGLRSEDEADYYCAIWHSSAWVFGGGTKLTVLG |  |  |  | 0.995 | 20.8 nM | binds | 
3 | EDCIPKWKGCVNRHGDCCEGLECWKRRRSFEVCVPKTPKT (Fc fusion, ends and bridges not checked; also: fused with Fc, isotype, linker and order not given here) [venom peptide PcTx1 fused with Fc (PcTx1-Fc)] |  |  |  |  |  |  | 1 nM
4 | ASC02 (scFv, V domains shown, also called ASC02 scFv; ASC02 (scFv format)) VH: QVQLVQSGAEVKKPGASMKVSCTTSGYTVTGYYIHWLRQAPGQGFEWMGWINPNLGVTNYAQKFQGRVSMTRDPSIKTAYLELSGLRSDDTAMYYCARASTGGIFYDYWGQGTLVTVSS VL: NFMLTQPHSMSESPGKTVTISCTRSSGNIASNYVQWYQQRPGSSPTTVIYDDNQRPSGVPDRFSGSIDSISNSASLTISGLKTEDEADYYCQSYDSSSVIFGGGTKLTVLG |  |  |  | 0.289 | 262 nM | binds | 
5 | ASC03 (scFv, V domains shown, also called ASC03 scFv; ASC03 (scFv format)) VH: QVQLVESGAEVKKPGSSVKVSCKASGGNFRKYSISWVRQAPGQGLEWMGWISAYNGNTNYAQKLQGRVTMTTDTSTSTAYMELRSLRSDDTAVYYCARDFDPYYDAFDIWGQGTTVTVSS VL: QSALTQPASVSGSPGQSITISCTGTSSDVGAYNYVSWYQQHPGKAPKLMIYDVSNRLSGVSNRFSGSKSGNRASLTISGLQAEDEADYYCSSYRSGNSLAFGGGTKLTVLG |  |  |  | 0.269 | 259 nM | binds | 
